This note sets out measurements from US20040253242A1.

This experiment addresses cMpl receptor (human (cloned from Tf-1 cells, a human cell line)) (UniProt P40238). Kind of experiment: cell-based or functional assay.

Regarding “TPO (from UniProt P40225 22-353) (ligand)”, the Relative Fold Luciferase activity (c-Fos promoter), CMpl-R transfected NIH3T3 cells; +TPO was found to be 2.32 fold.
